According to PMC2120799:

Biological target: cdk2 (NIH-3T3 cells) (mouse (endogenous in NIH-3T3)) (UniProt P97377)
Test: co-IP

Substance | stoichiometry N (mol per mol cdk2)
p21 (NIH-3T3 cells) (from UniProt P39689 1-159) (natural protein) | < 1
p27 (NIH-3T3 cells) (from UniProt P46414 1-197) (natural protein) | < 1
